# Laboratory results: IntAct's records for PubMed 21376300
# B1: Band 4.1-like protein 1 (Rattus norvegicus (Rat)), Q9WTP0 (parent)
# chain: MTTETGPDSEVKKAQEETPQQPEAAAAVTTPVTPAGHSHPETNSNEKHLTQQDTRPAEQSLDMEEKDYCEADGLSERTTPSKAQKSPQKIAKKFKSATCRVTLLDASEYECEVEKHGRGQVLFDLVCEHLNLLEKDYFGLTFCDADSQKNWLDPSKEIKKQIRSSPWNFAFTVKFYPPDPAQLTEDITRYYLCLQLRADIITGRLPCSFVTHALLGSYAVQAELGDHDTEEHVGNYVSELRFAPNQTRELEERIMELHKTYRGMTPGEAEIHFLENAKKLSMYGVDLHHAKDSEGIDIMLGVCANGLLIYRDRLRINRFAWPKILKISYKRSNFYIKIRPGEYEQFESTIGFKLPNHRSAKRLWKVCIEHHTFFRLVSPEPPPKGFLVMGSKFRYSGRTQAQTRQASALIDRPAPFFERSSSKRYTMSRSLDGAEFSRPASVSENHDAGPDGDKREDDAESGGRRSEAEEGEVRTPTKIKELKPEQETTPRHKQEFLDKPEDVLLKHQASINELKRTLKEPNSKLIHRDRDWERERRLPSSPASPSPKGTPEKASERAGLREGSEEKVKPPRPRAPESDTGDEDQDQERDAVFLKDNHLAIERKCSSITVSSTSSLEAEVDFTVIGDYHGGAFEDFSRSLPELDRDKSDSETEGLVFARDLKGPSSQEDESGGIEDSPDRGACSTPELPQFESVKAETMTVSSLAIRKKIEPEAMLQSRVSTADSTQVDGGAPAAKDFMTTPPCITTETISTTMENSLKSGKGAAAMIPGPQTVATEIRSLSPIIGKDVLTSTYGATAETLSTSTTTHVTKTVKGGFSETRIEKRIIITGDEDVDQDQALALAIKEAKLQHPDMLVTKAVVYRETDPSPEERDKKPQES
# B2: Voltage-dependent calcium channel gamma-2 subunit (Rattus norvegicus (Rat)), Q71RJ2 (parent)
# chain: MGLFDRGVQMLLTTVGAFAAFSLMTIAVGTDYWLYSRGVCKTKSVSENETSKKNEEVMTHSGLWRTCCLEGNFKGLCKQIDHFPEDADYEADTAEYFLRAVRASSIFPILSVILLFMGGLCIAASEFYKTRHNIILSAGIFFVSAGLSNIIGIIVYISANAGDPSKSDSKKNSYSYGWSFYFGALSFIIAEMVGVLAVHMFIDRHKQLRATARATDYLQASAITRIPSYRYRYQRRSRSSSRSTEPSHSRDASPVGVKGFNTLPSTEISMYTLSRDPLKAATTPTATYNSDRDNSFLQVHNCIQKDSKDSLHANTANRRTTPV
# Variants of: B1
# Conditions: with gria1_rat Gria1, P19490
row,Variant,effect of a mutation on the interaction
1,P852S,decreasing interaction

# Variants of: B2
# Conditions: with gria1_rat Gria1, P19490
# Target sequence in this assay (P19490 whole entry): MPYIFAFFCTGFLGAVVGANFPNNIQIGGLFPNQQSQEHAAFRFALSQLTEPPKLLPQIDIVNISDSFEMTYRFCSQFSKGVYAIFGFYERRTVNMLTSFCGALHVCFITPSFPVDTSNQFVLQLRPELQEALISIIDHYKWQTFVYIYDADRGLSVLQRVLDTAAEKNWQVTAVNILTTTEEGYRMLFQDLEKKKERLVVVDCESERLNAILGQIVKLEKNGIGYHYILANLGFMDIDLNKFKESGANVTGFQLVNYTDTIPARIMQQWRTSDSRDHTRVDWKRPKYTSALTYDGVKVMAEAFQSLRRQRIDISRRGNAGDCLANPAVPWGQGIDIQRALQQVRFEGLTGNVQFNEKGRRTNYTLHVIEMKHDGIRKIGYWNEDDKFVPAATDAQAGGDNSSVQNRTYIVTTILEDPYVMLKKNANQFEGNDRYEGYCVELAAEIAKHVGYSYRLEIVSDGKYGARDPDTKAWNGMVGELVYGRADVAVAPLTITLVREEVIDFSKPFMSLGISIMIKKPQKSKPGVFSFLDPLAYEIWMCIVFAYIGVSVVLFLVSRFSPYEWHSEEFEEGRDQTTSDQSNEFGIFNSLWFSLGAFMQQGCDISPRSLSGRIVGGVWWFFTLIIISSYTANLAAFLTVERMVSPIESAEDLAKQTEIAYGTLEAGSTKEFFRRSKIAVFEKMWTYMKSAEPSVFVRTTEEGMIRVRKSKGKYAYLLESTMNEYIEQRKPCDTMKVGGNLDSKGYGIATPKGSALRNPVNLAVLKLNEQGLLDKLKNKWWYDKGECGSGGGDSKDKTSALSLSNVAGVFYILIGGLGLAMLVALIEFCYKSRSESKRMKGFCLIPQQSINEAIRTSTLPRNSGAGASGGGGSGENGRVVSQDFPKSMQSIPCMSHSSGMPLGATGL
row,Variant,effect of a mutation on the interaction
1,MGLFDRGVQMLLTTVGAFAAFSLMTIAVGTDYWLYSRGVCKTKSVSENETSKKNEEVMTHSGLWRTCCLEGNFKGLCKQIDHFPEDADYEADTAEYFLRAVRASSIFPILSVILLFMGGLCIAASEFYKTRHNIILSAGIFFLSAGLSNIIGIIVYISANAGDPSKSDSKKNSYSYGWSFYFGALSFIIAEMVGVLAVHMFIDRHKQLRATARATDYLQASAITRIPSYRYRYQRRSRSSSRSTEPSHSRDASPVGVKGFNTLPSTEISMYTLSRDPLKAATTPTATYNSDRDNSFLQVHNCIQKDSKDSLHANTANRRTTPV [V143L],decreasing interaction

# Variants of: B2
# Conditions: with gria2_rat Gria2, P19491
# Sequence of gria2_rat Gria2, P19491 (P19491 whole entry): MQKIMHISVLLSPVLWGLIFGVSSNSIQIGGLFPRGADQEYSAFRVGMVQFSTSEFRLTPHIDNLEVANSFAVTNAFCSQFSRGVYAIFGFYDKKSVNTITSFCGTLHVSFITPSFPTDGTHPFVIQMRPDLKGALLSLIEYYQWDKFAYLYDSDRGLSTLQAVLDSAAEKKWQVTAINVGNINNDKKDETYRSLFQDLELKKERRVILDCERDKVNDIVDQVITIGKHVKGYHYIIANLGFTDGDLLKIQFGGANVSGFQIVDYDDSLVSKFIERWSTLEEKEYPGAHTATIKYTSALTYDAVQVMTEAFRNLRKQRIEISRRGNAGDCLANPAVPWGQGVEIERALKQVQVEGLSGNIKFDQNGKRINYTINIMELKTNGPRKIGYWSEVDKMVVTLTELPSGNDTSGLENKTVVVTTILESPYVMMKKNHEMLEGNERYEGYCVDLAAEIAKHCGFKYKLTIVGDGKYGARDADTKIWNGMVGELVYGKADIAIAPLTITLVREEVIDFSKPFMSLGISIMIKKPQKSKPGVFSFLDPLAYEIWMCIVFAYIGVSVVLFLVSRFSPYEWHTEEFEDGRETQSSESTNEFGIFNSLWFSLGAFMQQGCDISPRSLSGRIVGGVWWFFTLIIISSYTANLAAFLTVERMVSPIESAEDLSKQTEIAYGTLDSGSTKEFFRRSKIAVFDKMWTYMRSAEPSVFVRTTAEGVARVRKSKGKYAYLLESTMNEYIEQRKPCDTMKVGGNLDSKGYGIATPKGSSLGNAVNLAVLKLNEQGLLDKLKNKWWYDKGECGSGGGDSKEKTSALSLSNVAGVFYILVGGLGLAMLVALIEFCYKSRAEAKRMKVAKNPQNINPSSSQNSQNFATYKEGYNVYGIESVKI
row,Variant,effect of a mutation on the interaction
1,MGLFDRGVQMLLTTVGAFAAFSLMTIAVGTDYWLYSRGVCKTKSVSENETSKKNEEVMTHSGLWRTCCLEGNFKGLCKQIDHFPEDADYEADTAEYFLRAVRASSIFPILSVILLFMGGLCIAASEFYKTRHNIILSAGIFFLSAGLSNIIGIIVYISANAGDPSKSDSKKNSYSYGWSFYFGALSFIIAEMVGVLAVHMFIDRHKQLRATARATDYLQASAITRIPSYRYRYQRRSRSSSRSTEPSHSRDASPVGVKGFNTLPSTEISMYTLSRDPLKAATTPTATYNSDRDNSFLQVHNCIQKDSKDSLHANTANRRTTPV [V143L],decreasing interaction
